Experimental data from patent publication US20210346432A1 (Memorial Sloan Kettering, published 2021).
No end group written: not given here. *: point of attachment. Biotin = O=C1N[C@H]2[C@H](CS[C@H]2CCCCC(=O)*)N1

T1: ET140-p11 (human, cysteine pairing not given here)
T1 construct: also called peptide 11; ET140-pll
T1 peptide: Biotin-SGSGEYFDSLLHACIPCQL

T2: ET140-p16 (human, cysteine pairing not given here)
T2 construct: also called peptide 16
T2 peptide: Biotin-SGSGLLHACIPCQLRCSSN

T3: ET140-p36 (human, cysteine pairing not given here)
T3 construct: also called peptide 36
T3 peptide: Biotin-SGSGCQRYCNASVTNSVKG

T4: ET140-p20 (human, cysteine pairing not given here)
T4 construct: also called peptide 20
T4 peptide: Biotin-SGSGCIPCQLRCSSNTPPL

T5: ET140-p24 (human, cysteine pairing not given here)
T5 construct: also called peptide 24
T5 peptide: Biotin-SGSGQLRCSSNTPPLTCQR

T6: ET140-p12 (human, cysteine pairing not given here)
T6 construct: also called peptide 12
T6 peptide: Biotin-SGSGYFDSLLHACIPCQLR

T7: ET140-p29 (human, cysteine pairing not given here)
T7 construct: also called peptide 29
T7 peptide: Biotin-SGSGSNTPPLTCQRYCNAS

T8: ET140-p6 (human, cysteine pairing not given here)
T8 construct: also called peptide 6
T8 peptide: Biotin-SGSGQCSQNEYFDSLLHAC

T9: ET140-p31 (human, cysteine pairing not given here)
T9 construct: also called peptide 31
T9 peptide: Biotin-SGSGTPPLTCQRYCNASVT

T10: ET140-p15 (human, cysteine pairing not given here)
T10 construct: also called peptide 15
T10 peptide: Biotin-SGSGSLLHACIPCQLRCSS

T11: ET140-p5 (human)
T11 construct: also called peptide 5
T11 peptide: Biotin-SGSGGQCSQNEYFDSLLHA

T12: ET140-p9 (human, cysteine pairing not given here)
T12 construct: also called peptide 9
T12 peptide: Biotin-SGSGQNEYFDSLLHACIPC

T13: ET140-p19 (human, cysteine pairing not given here)
T13 construct: also called peptide 19
T13 peptide: Biotin-SGSGACIPCQLRCSSNTPP

T14: ET140-p13 (human, cysteine pairing not given here)
T14 construct: also called peptide 13
T14 peptide: Biotin-SGSGFDSLLHACIPCQLRC

T15: ET140-p1 (human)
T15 construct: also called peptide 1; ET140-pl
T15 peptide: Biotin-SGSGLQMAGQCSQNEYFDS

T16: ET140-p14 (human, cysteine pairing not given here)
T16 construct: also called peptide 14
T16 peptide: Biotin-SGSGDSLLHACIPCQLRCS

T17: ET140-p32 (human, cysteine pairing not given here)
T17 construct: also called peptide 32
T17 peptide: Biotin-SGSGPPLTCQRYCNASVTN

T18: ET140-p33 (human, cysteine pairing not given here)
T18 construct: also called peptide 33
T18 peptide: Biotin-SGSGPLTCQRYCNASVTNS

T19: ET140-p27 (human, cysteine pairing not given here)
T19 construct: also called peptide 27
T19 peptide: Biotin-SGSGCSSNTPPLTCQRYCN

T20: ET140-p3 (human)
T20 construct: also called peptide 3
T20 peptide: Biotin-SGSGMAGQCSQNEYFDSLL

T21: ET140-p38 (human)
T21 construct: also called peptide 38
T21 peptide: Biotin-SGSGRYCNASVTNSVKGTN

T22: ET140-p28 (human, cysteine pairing not given here)
T22 construct: also called peptide 28
T22 peptide: Biotin-SGSGSSNTPPLTCQRYCNA

T23: ET140-p18 (human, cysteine pairing not given here)
T23 construct: also called peptide 18
T23 peptide: Biotin-SGSGHACIPCQLRCSSNTP

T24: ET140-p2 (human)
T24 construct: also called peptide 2
T24 peptide: Biotin-SGSGQMAGQCSQNEYFDSL

T25: ET140-p30 (human, cysteine pairing not given here)
T25 construct: also called peptide 30
T25 peptide: Biotin-SGSGNTPPLTCQRYCNASV

T26: ET140-p10 (human, cysteine pairing not given here)
T26 construct: also called peptide 10
T26 peptide: Biotin-SGSGNEYFDSLLHACIPCQ

B1: ET140-204 mIgG1 (antibody, V domains shown)
VH: EVQLVQSGAEMKKPGASLKLSCKASGYTFIDYYVYWMRQAPGQGLESMGWINPNSGGTNYAQKFQGRVTMTRDTSISTAYMELSRLRSDDTAMYYCARSQRDGYMDYWGQGTLVTVSS
VL: QSALTQPASVSASPGQSIAISCTGTSSDVGWYQQHPGKAPKLMIYEDSKRPSGVSNRFSGSKSGNTASLTISGLQAEDEADYYCSSNTRSSTLVFGGGTKLTVLG
notes: also called ET140-54 mIgG1; ET140-54
B2: ET140-174 mIgG1 (antibody, V domains shown)
VH: EVQLVQSGAEVKKPGESLKISCKGSGYSFTSYWIGWVRQMPGKGLEWMGIIYPGDSDTRYSPSFQGHVTISADKSISTAYLQWSSLKASDTAMYYCARYSGSFDNWGQGTLVTVSS
VL: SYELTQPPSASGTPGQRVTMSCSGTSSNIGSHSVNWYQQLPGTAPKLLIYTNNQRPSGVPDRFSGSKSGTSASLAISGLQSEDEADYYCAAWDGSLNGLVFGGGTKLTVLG
notes: also called ET140-24 mIgG1; ET140-24
B3: ET140-153 mIgG1 (antibody, V domains shown)
VH: QVQLVQSGAEVKKPGSSVKVSCKASGGTFSSYAISWVRQAPGQGLEWMGRIIPILGIANYAQKFQGRVTITADKSTSTAYMELSSLRSEDTAVYYCARGGYYSHDMWSEDWGQGTLVTVSS
VL: LPVLTQPPSASGTPGQRVTISCSGRSSNIGSNSVNWYRQLPGAAPKLLIYSNNQRPPGVPVRFSGSKSGTSASLAISGLQSEDEATYYCATWDDNLNVHYVFGTGTKVTVLG
notes: also called ET140-3 mIgG1; ET140-3

Assays:
Assay in all cases: peptide ELISA on streptavidin plate, antibody 1 ug/mL
[1] = biological target: T1, ET140-p11
Experimental: (§1) The peptides were coated onto Streptavidin plates at 2 ug/mL in PBST (PBS+0.05% Tween-20). After washing and blocking with 3% BSA. […] “mIgG1” used in all Examples represents that the variable region is fully human and the Fc part is mouse IgG1. Then HRP anti-mouse IgG detection antibody was added to each well. Finally, the color was developed using TMB substrate. A450 was recorded for data analysis.

[2] = biological target: T2, ET140-p16
Experimental: as §1

[3] = biological target: T3, ET140-p36
Experimental: as §1

[4] = biological target: T4, ET140-p20
Experimental: as §1

[5] = biological target: T5, ET140-p24
Experimental: as §1

[6] = biological target: T6, ET140-p12
Experimental: as §1

[7] = biological target: T7, ET140-p29
Experimental: as §1

[8] = biological target: T8, ET140-p6
Experimental: as §1

[9] = biological target: T9, ET140-p31
Experimental: as §1

[10] = biological target: T10, ET140-p15
Experimental: as §1

[11] = biological target: T11, ET140-p5
Experimental: as §1

[12] = biological target: T12, ET140-p9
Experimental: as §1

[13] = biological target: T13, ET140-p19
Experimental: as §1

[14] = biological target: T14, ET140-p13
Experimental: as §1

[15] = biological target: T15, ET140-p1
Experimental: as §1

[16] = biological target: T16, ET140-p14
Experimental: as §1

[17] = biological target: T17, ET140-p32
Experimental: as §1

[18] = biological target: T18, ET140-p33
Experimental: as §1

[19] = biological target: T19, ET140-p27
Experimental: as §1

[20] = biological target: T20, ET140-p3
Experimental: as §1

[21] = biological target: T21, ET140-p38
Experimental: as §1

[22] = biological target: T22, ET140-p28
Experimental: as §1

[23] = biological target: T23, ET140-p18
Experimental: as §1

[24] = biological target: T24, ET140-p2
Experimental: as §1

[25] = biological target: T25, ET140-p30
Experimental: as §1

[26] = biological target: T26, ET140-p10
Experimental: as §1

| Binder | A450 [1] | A450 [2] | A450 [3] | A450 [4] | A450 [5] | A450 [6] | A450 [7] | A450 [8] | A450 [9] | A450 [10] | A450 [11] | A450 [12] | A450 [13] | A450 [14] | A450 [15] | A450 [16] | A450 [17] | A450 [18] | A450 [19] | A450 [20] | further results |
| --- | --- | --- | --- | --- | --- | --- | --- | --- | --- | --- | --- | --- | --- | --- | --- | --- | --- | --- | --- | --- | --- |
| B1 | 0.085 | 0.263 | 0.085 | 0.081 | 0.325 | 0.139 | 0.083 | 0.095 | 0.08 | 0.276 | 0.069 | 0.087 | 0.099 | 0.138 | 0.069 | 0.104 | 0.092 | 0.084 | 0.103 | 0.083 | A450 [21]: 0.069; A450 [22]: 0.093; A450 [23]: 0.105; A450 [24]: 0.076; A450 [25]: 0.08; A450 [26]: 0.087 |
| B2 | 0.094 | 0.231 | 0.084 | 0.083 | 0.357 | 0.137 | 0.09 | 0.105 | 0.085 | 0.268 | 0.073 | 0.104 | 0.104 | 0.143 | 0.084 | 0.105 | 0.092 | 0.083 | 0.1 | 0.08 | A450 [21]: 0.071; A450 [22]: 0.101; A450 [23]: 0.099; A450 [24]: 0.079; A450 [25]: 0.083; A450 [26]: 0.115 |
| B3 | 1.07 | 0.266 | 0.089 | 0.087 | 0.382 | 2.08 | 0.109 | 0.127 | 0.107 | 0.328 | 0.08 | 2.25 | 0.098 | 1.03 | 0.084 | 0.124 | 0.099 | 0.116 | 0.12 | 0.086 | A450 [21]: 0.08; A450 [22]: 0.109; A450 [23]: 0.097; A450 [24]: 0.076; A450 [25]: 0.111; A450 [26]: 0.758 |
